Reference: patent publication US20240336661A1, “PEPTIDES DERIVED FROM RUMINOCOCCUS TORQUES” (University of Copenhagen, priority 2021, published 2024)

B1: RUCILP2: 87 amino acid irisin-like polypeptide cleaved from the Ruminococcus torques FNDC5-like protein RUMTOR_00181; recombinant, 6-His-tagged from E. coli (protein)
chain: APVDVKVSEITETSAKASWKNAADGKEAAGYNVYVDGVKLNKELLTEASCGLTNLKAETTYFVEVTAVDAAGNESVKSEKVTFKTLK
modifications: 6-His tag; Ruminococcus torques
notes: 87 amino acid irisin-like polypeptide cleaved from the Ruminococcus torques FNDC5-like protein RUMTOR_00181; recombinant, 6-His-tagged from E. coli
B2: RUCILP1: 88 amino acid FNIII domain polypeptide of RUMTOR_00181 from Ruminococcus torques (protein)
chain: APVDVKVSEVTETSAKVSWKNAADGKEAAGYNVYVDGTKVNEELIAETTYNVSSLKDGTTYSVEVTAVDAAGEESAKSEKVEFTTVKK
modifications: Ruminococcus torques
notes: 88 amino acid FNIII domain polypeptide of RUMTOR_00181 from Ruminococcus torques

Key:
adipocytes = assay: Oil red O staining of lipids in adipocytes; format: cell-based, mouse
Description: FIG. 10. […] Staining was performed on 10% formalin-fixed adipocytes according to the manufacturer's protocol.
Oil red O staining of lipids in adipocytes was performed according to the protocol below: • (1) Fixation—Remove the medium and gently wash the cells twice with PBS. Add formalin (10%) to the cells and incubate for 30 minutes • (2) Discard the formalin and wash the cells twice using sterile water. Add 60% isopropanol to the cells and incubate for 5 minutes • (3) Discard 60% isopropanol and cover the cells evenly with Oil Red O Working Solution. Rotate the plate or dish, and incubate for 15 minutes • (4) Discard the Oil Red O solution and wash the cells four times with water until no excess stain is seen • (5) Add hematoxylin to the cells and incubate for 1 minute. Discard hematoxylin and wash the cells four times with water • (6) Cover the cells with sterile water and view under microscope. Lipid droplets appear red, and nuclei appear blue

murine C2C12 myoblasts = assay: Myotube formation and myogenesis gene expression in C2C12 myoblasts; format: cell-based, mouse
Description: FIG. 12. […] The C2C12 myotubes were treated with indicated doses of RUCILP2 overnight and myotube images were collected at magnification, ×10.
FIG. 28. […] White preadipocytes from human visceral fat (C-12732, PromoCell) were cultured until 80% confluent and switched into differentiation media (with 0.3 ml/ml of fetal calf serum (FCS), 8 ug/ml of d-biotin, 0.5ug/ml of insulin, 400 ng/ml of dexamethasone) in the presence of 15 nM of 21-AABP2. The differentiation process to mature adipocytes was completed after 14 days. Cells were harvested after 14 days of differentiation and the indicated genes were quantified by q-PCR. Inguinal fat tissues from 6-week-old wild-type C57BL/6J female mice were dissected and washed with PBS, minced and digested for 1 hour at 37° C. in PBS containing 10 mM CaCl2, 2.4 U/ml dispase II (Roche) and 10 mg/ml collagenase D (Roche). After adding warm DMEM/F12 (1:1) with 10% FCS, digested tissue was filtered through a […] cell strainer and centrifuged at 600×g for 10 minutes. Pellet was resuspended by 40 ml DMEM/F12 (1:1) with 10% FCS and filtered through a […] cell strainer followed by centrifugation at 600×g for 10 minutes. Pelleted inguinal stromal vascular cells were grown to confluence and split onto 12-well plates. The cells were induced to differentiate by treatment with […], 0.5 mM isobutyl methyl xanthine for 2 days. After that, cells were maintained in […] for 4 days with medium change every other day. The cells were treated with 15 nM of 21-AABP2 every other day during 6 days of differentiation. Cells were harvested after 6 days of differentiation and thermogenesis gene were quantified by q-PCR. C2C12 myoblasts (CRL-1772, ATCC) were cultured until 80% confluent and switched into differentiation media (with 2% horse serum). The treatment with 21-AABP2 started from the second day of differentiation. Cells were harvested after 4 days of differentiation and expression of myogenesis genes were quantified by q-PCR. Data are presented as mean+/−SEM of one representative experiment done in biological triplicates. Statistical significance was determined by unpaired two-tailed Student's t test, *, p<0.05
FIG. 29. […] Representative images of myoblasts (CRL-1772, ATCC) at 24h of differentiation in the presence of phosphate buffered saline (PBS, blank) or 21-AABP2 (15 nM). Presented images were from one representative experiment done in biological triplicates.
C2C12 cells were seeded on 12-well plates under DMEM/F-12 medium (Dulbecco's Modified Eagle Medium/Nutrient Mixture F-12, Fisher Scientific, #11524436), supplemented with 10% FBS (Fetal Bovine Serum, Fisher Scientific, #11550356) and 1% Penicillin-Streptomycin (Fisher Scientific, #11548876). Cell cultures were maintained in a humidified chamber with 5% CO2 at 37° C., and culture media were changed every 2-3 days.
At approximately 80% confluence, 10% fetal bovine serum was replaced with 2% horse serum to induce C2C12 myoblast cells to differentiate into myotubes. Twenty-four hours later (day 1 of the differentiation), the cells were treated with recombinant RUCILP2 or commercial recombinant irisin (Sigma, #SRP8039-10UG and Phoenix pharmaceuticals, #067-29A) or saline. For integrin inhibitor treatment, cells were treated with 10 μM of CycloRGDyK (Selleckchem, #S7844) for 10 minutes and washed with PBS before treated with recombinant RUCILP2 or commercial recombinant irisin or saline. At day three, the cells were refreshed with the same media as day one. After treatments for six hours on day 3, C2C12 cells were harvested for qRT-PCR analysis.
C2C12 myoblasts were cultured until 80% confluent and switched into differentiation media (with 2% horse serum). The treatment with 21-AABP2 started from the second day of differentiation. Representative images of the formed myotubes at 24h of differentiation in the presence of PBS (blank) or 21-AABP2 (15 nM) were captured. […]

fat cells = assay: Cellular experiments with recombinant RUCILP2 summarised in Example 6 (fat and liver cells); format: cell-based
[1] = system: subcutaneous white adipose tissue (SWAT) and liver; assay: Intraperitoneal RUCILP1 or RUCILP2 for 7 days in mice, gene expression in SWAT and liver; format: in vivo, mouse; conditions: 1 mg/kg i.p.
Description: FIG. 46. Effects of RUCILP1 and RUCILP2 on gene expression in vivo. Recombinant RUCILPs were daily injected into peritoneum of 8-week-old wild type C57BL/6N mice at a concentration of 1 mg/kg for one week. The mRNA levels of indicated genes in subcutaneous white adipose tissue (SWAT) and liver were analyzed by qRT-PCR. n=6 animals per group. * indicates p<0.05 using one-way ANOVA followed by Dunnett post hoc correction. Data are expressed as mean±SEM.
For the RUCILPs intervention study, male mice (n=6 per group, 8 weeks of age) fed with standard chow diet were treated daily with an in intraperitoneal injection of 1 mg/kg recombinant RUCILP1, RUCILP2, or saline, respectively, for a week. All animals were then sacrificed and subcutaneous fat pads and liver were collected. The mRNA levels of indicated genes in subcutaneous fat and liver were analyzed by qRT-PCR as described in standard protocol for gene expression analysis.
Total RNA from cells or tissues was extracted according to the instructions provided by manufacturer of RNeasy mini kit (Qiagen) using QIAzol lysis reagent (Qiagen), followed by measurements of RNA purities and concentrations by NanoDrop 2000 spectrophotometer (Thermo Scientific). A total of 1 μg of RNA was used for the reverse transcription to cDNA using the iScript™ Select cDNA Synthesis Kit (Bio-Rad Laboratories). The samples were subjected to real-time PCR using the LC480 system (Roche Diagnostics) after premixing with Precision®PLUS Master Mix (Primer Design). For each indicated gene, samples were run in duplicate in a 384-well plate and ΔΔCt method was used for quantifying the expressions after normalization to the housekeeping Rpl36 or GAPDH gene.

Molecule | lipid content in adipocytes (oil red O staining) (adipocytes) | myotube formation (murine C2C12 myoblasts; C2C12, treated overnight) | expression of Heyl (murine C2C12 myoblasts; C2C12 myoblasts, dose-response) | myotube formation markers Sox8 and Stat3 (murine C2C12 myoblasts; C2C12 myoblasts, dose-response) | leptin expression in fat cells (fat cells) | expression of genes regulating lipogenesis (fat cells; adipocytes and liver cells) | gene markers for white adipocytes AdipoQ and Ppara in SWAT [1] | genes involved in gluconeogenesis G6pase and Pepck1 in liver [1] | thermogenic markers Ucp1, Prdm16, Dio2 in SWAT [1]
B1 | reduces lipid content | induces myotube formation | more clear dose-dependence response | less dose-dependent | enhances | inhibits expression | diminishes expression | lowered expression | comparable effects
B2 | – | – | – | less dose-dependent | – | – | did not find significant reduction | no effect | comparable effects
